Assay results taken from the supplement of paper PMC11246515.
± gives the standard deviation of the averaged measurements.

Assay: total protein half-life in vivo (active degradation + dilution); higher = more stable protein
[1] = E. coli NCM3722 delta-clpP, growth: N-lim chemostat, doubling time 6 h
[2] = E. coli NCM3722 delta-hslV, growth: N-lim chemostat, doubling time 6 h
[3] = E. coli NCM3722 delta-lon, growth: N-lim chemostat, doubling time 6 h
[4] = E. coli NCM3722 delta-smpB, growth: N-lim chemostat, doubling time 6 h
[5] = wild type E. coli NCM3722, growth: C-lim chemostat, doubling time 12 h
[6] = wild type E. coli NCM3722, growth: N-lim chemostat, doubling time 6 h
[7] = wild type E. coli NCM3722, growth: N-lim chemostat, doubling time 12 h
[8] = wild type E. coli NCM3722, growth: P-lim chemostat, doubling time 6 h
[9] = wild type E. coli NCM3722, growth: P-lim chemostat, doubling time 12 h
[10] = E. coli NCM3722 delta-clpP delta-lon delta-hslV, growth: N-lim chemostat, doubling time 6 h
[11] = wild type E. coli NCM3722, growth: C-lim chemostat, doubling time 3 h
[12] = wild type E. coli NCM3722, growth: C-lim chemostat, doubling time 6 h

Row | Sequence | total protein half-life in vivo [1] [h] | total protein half-life in vivo [2] [h] | total protein half-life in vivo [3] [h] | total protein half-life in vivo [4] [h] | total protein half-life in vivo [5] [h] | total protein half-life in vivo [6] [h] | total protein half-life in vivo [7] [h] | total protein half-life in vivo [8] [h] | total protein half-life in vivo [9] [h] | total protein half-life in vivo [10] [h] | total protein half-life in vivo [11] [h] | total protein half-life in vivo [12] [h]
1 | MGIKQHNGNTKADRLAELKIRSPSIQLIKFGAIGLNAIIFSPLLIAADTGSQYGTNITINDGDRITGDTADPSGNLYGVMTPAGNTPGNINLGNDVTVNVNDASGYAKGIIIQGKNSSLTANRLTVDVVGQTSAIGINLIGDYTHADLGTGSTIKSNDDGIIIGHSSTLTATQFTIENSNGIGLTINDYGTSVDLGSGSKITTDGSTGVYIGGLNGNNANGAARFTATDLTIDVQGYSAMGINVQKNSVVDLGTNSTIKTNGDNAHGLWSFGQVSANALTVDVTGAAANGVEVRGGTTTIGADSHISSAQGGGLVTSGSDAIINFTGTAAQRNSIFSGGSYGASAQTATAVVNMQNTDITVDRNGSLALGLWALSGGRITGDSLAITGAAGARGIYAMTNSQIDLTSDLVIDMSTPDQMAIATQHDDGYAASRINASGRMLINGSVLSKGGLINLDMHPGSVWTGSSLSDNVNGGKLDVAMNNSVWNVTSNSNLDTLALSHSTVDFASHGSTAGTFATLNVENLSGNSTFIMRADVVGEGNGVNNKGDLLNISGSSAGNHVLAIRNQGSEATTGNEVLTVVKTTDGAASFSASSQVELGGYLYDVRKNGTNWELYASGTVPEPTPNPEPTPAPAQPPIVNPDPTPEPAPTPKPTTTADAGGNYLNVGYLLNYVENRTLMQRMGDLRNQSKDGNIWLRSYGGSLDSFASGKLSGFDMGYSGIQFGGDKRLSDVMPLYVGLYIGSTHASPDYSGGDGTARSDYMGMYASYMAQNGFYSDLVIKASRQKNSFHVLDSQNNGVNANGTANGMSISLEAGQRFNLSPTGYGFYIEPQTQLTYSHQNEMTMKASNGLNIHLNHYESLLGRASMILGYDITAGNSQLNVYVKTGAIREFSGDTEYLLNNSREKYSFKGNGWNNGVGVSAQYNKQHTFYLEADYTQGNLFDQKQVNGGYRFSF | > 8 | 6.81 ± 1.4 | 5.53 ± 0.71 | 5.18 ± 1 | > 16 | 7.13 | 11.6 ± 0.3 | 4.97 ± 1.4 | 12.5 ± 2.7 | – | – | –
2 | MGKEVMGKKENEMAQEKERPAGSQSLFRGLMLIEILSNYPNGCPLAHLSELAGLNKSTVHRLLQGLQSCGYVTTAPAAGSYRLTTKFIAVGQKALSSLNIIHIAAPHLEALNIATGETINFSSREDDHAILIYKLEPTTGMLRTRAYIGQHMPLYCSAMGKIYMAFGHPDYVKSYWESHQHEIQPLTRNTITELPAMFDELAHIRESGAAMDREENELGVSCIAVPVFDIHGRVPYAVSISLSTSRLKQVGEKNLLKPLRETAQAISNELGFTVRDDLGAIT | 6.38 ± 0.83 | 5.57 ± 0.36 | 5.84 ± 0.19 | 5.29 ± 0.3 | 12.6 ± 1.2 | 5.86 ± 0.21 | 9.57 ± 0.79 | 6.38 ± 1.8 | 11.2 ± 2.3 | 6.16 ± 0.066 | 2.91 ± 0.036 | 6.07 ± 0.19
3 | MGKHHWKIEKQPEWYVKAVRKTIAALPSGYAEAADWLDVTENALFNRLRADGDQIFPLGWAMVLQRAGGTHFIADAVAQSANGVFVSLPDVEDVDNADINQRLLEVIEQIGSYSKQIRSAIEDGVVEPHEKTAINDELYLSISKLQEHAALVYKIFCISESNDARECAAPGVVASIASGCGETNA | – | – | – | – | – | – | – | – | – | 2.93 ± 0.6 | – | –
4 | MGKSIVVVSAVNFTTGGPFTILKKFLAATNNKENVSFIALVHSAKELKESYPWVKFIEFPEVKGSWLKRLHFEYVVCKKLSKELNATHWICLHDITANVVTKKRYVYCHNPAPFYKGILFREILMEPSFFLFKMLYGLIYKINIKKNTAVFVQQFWMKEKFIKKYSINNIIVSRPEIKLSDKSQLTDDDSQFKNNPSELTIFYPAVPRVFKNYELIISAARKLKEQSNIKFLLTISGTENAYAKYIISLAEGLDNVHFLGYLDKEKIDHCYNISDIVCFPSRLETWGLPLSEAKERGKWVLASDFPFTRETLGSYEKKAFFDSNNDDMLVKLIIDFKKGNLKKDISDANFIYRNENVLVGFDELVNFITEEH | > 8 | > 8 | 7.3 ± 0.89 | 5.6 ± 0.084 | 10.5 | 5.39 ± 0.26 | 12.4 ± 0.87 | 6.42 | 14.9 ± 1.6 | 5.98 | – | 5.53
5 | MGKTQPLPILITGGGRRIGLALAWHFINQKQPVIVSYRTHYPAIDGLINAGAQCIQADFSTNDGVMAFADEVLKSTHGLRAILHNASAWMAEKPGAPLADVLACMMQIHVNTPYLLNHALERLLRGHGHAASDIIHFTDYVVERGSDKHIAYAASKAALDNMTRSFARKLAPEVKVNSIAPSLILFNEHDDAEYRQQALNKSLMKTAPGEKEVIDLVDYLLTSCFVTGRSFPLDGGRHLR [P0AFS3] | 5.33 ± 1.2 | 5.31 ± 0.45 | 5.6 ± 0.53 | 4.85 ± 0.43 | 11.5 ± 1 | 5.32 ± 0.17 | 9.17 ± 0.28 | 5.56 ± 0.12 | 12.3 ± 0.39 | 5.23 ± 0.36 | 3.124 ± 0.021 | 5.67 ± 0.13
6 | MGLCSRYKSLTCNSCSMHCQIMPEESPRLQYCANSCFCMWPEESSYFNRGVVEGILTKNHNARLSGYIFVDFSVSFLRLFLEKDWIDYLASTDMGIVLVSDRNMQSLANYWRKHNSAISAVIYNDDGLDVANEKIRQLFIGRYLSFTGGNTLTQMEFTIMGYMVSGYNPYQIAEVLDMDIRSIYAYKQRIEKRMGGKINELFIRSHSVQH | – | – | – | – | – | – | – | – | – | 4.5 ± 2.7 | – | –
7 | MGLFDKLKSLVSDDKKDTGTIEIIAPLSGEIVNIEDVPDVVFAEKIVGDGIAIKPTGNKMVAPVDGTIGKIFETNHAFSIESDSGVELFVHFGIDTVELKGEGFKRIAEEGQRVKVGDTVIEFDLPLLEEKAKSTLTPVVISNMDEIKELIKLSGSVTVGETPVIRIKK | 4.93 ± 0.37 | 4.53 ± 0.15 | 4.82 ± 0.3 | 4.415 ± 0.029 | 10.6 ± 1.7 | 4.48 ± 0.28 | 7.87 ± 0.1 | 5.64 ± 0.17 | 11.1 ± 0.48 | 5.14 ± 0.12 | 3.29 ± 0.1 | 5.34 ± 0.22
8 | MGLFNFVKDAGEKLWDAVTGQHDKDDQAKKVQEHLNKTGIPDADKVNIQIADGKATVTGDGLSQEAKEKILVAVGNISGIASVDDQVKTATPATASQFYTVKSGDTLSAISKQVYGNANLYNKIFEANKPMLKSPDKIYPGQVLRIPEE [P0ADE6] | 5.8 ± 0.83 | 5.979 ± 0.053 | 6.34 ± 0.072 | 5.3 ± 0.33 | 9.85 ± 1.1 | 4.67 ± 0.066 | 9.41 ± 1.2 | 5.21 ± 0.41 | 11.7 ± 0.15 | 6.19 ± 0.023 | 3.18 ± 0.085 | 5.55 ± 0.29
9 | MGLMNAFDSQTEDSSPAIGRNLRSRPLARKKLSEMVEEELEQMIRRREFGEGEQLPSERELMAFFNVGRPSVREALAALKRKGLVQINNGERARVSRPSADTIIGELSGMAKDFLSHPGGIAHFEQLRLFFESSLVRYAAEHATDEQIDLLAKALEINSQSLDNNAAFIRSDVDFHRVLAEIPGNPIFMAIHVALLDWLIAARPTVTDQALHEHNNVSYQQHIAIVDAIRRHDPDEADRALQSHLNSVSATWHAFGQTTNKKK [P0A8W0] | 5.05 ± 0.14 | 3.63 ± 0.045 | 4.53 ± 0.93 | 3.48 ± 0.66 | 6.39 ± 0.4 | 3.95 ± 0.16 | 5.27 ± 0.066 | 3.59 ± 0.14 | 6.29 ± 0.19 | 5.49 ± 0.12 | 2.383 ± 0.0064 | 4.17 ± 0.12
10 | MGMENYNPPQEPWLVILYQDDHIMVVNKPSGLLSVPGRLEEHKDSVMTRIQRDYPQAESVHRLDMATSGVIVVALTKAAERELKRQFREREPKKQYVARVWGHPSPAEGLVDLPLICDWPNRPKQKVCYETGKPAQTEYEVVEYAADNTARVVLKPITGRSHQLRVHMLALGHPILGDRFYASPEARAMAPRLLLHAEMLTITHPAYGNSMTFKAPADF [P0AA37] | 4.59 ± 0.51 | 5.03 ± 0.2 | 4.55 ± 1.1 | 4.63 ± 0.28 | – | 4.66 ± 0.18 | 7.6 | 6.39 | 12.7 | 4.98 ± 0.17 | 3.82 | 7.71
11 | MGMIGYFAEIDSEKINQLLESTEKPLMDNIHDTLSGLRRLDIDKRWDFLHFGLTGTSAFDPAKNDPLSRAVLGEHSLEDGIDGFLGLTWNQELAATIDRLESLDRNELRKQFSIKRLNEMEIYPGVTFSEELEGQLFASIMLDMEKLISAYRRMLRQGNHALTVIVG | – | 2.19 | – | 1.91 ± 0.022 | 4.57 | – | – | 3.44 ± 0.17 | 6.19 ± 0.12 | – | 1.89 | 4.04
